Test results taken from article PMC7449674.

Target: human H3.1/H4 tetramer (ITC sample) (human) (UniProt P68431)
Test: ITC

Substance: mouse POLA1 N1 fragment (ITC sample) (from UniProt P33609 1-110) (domain or fragment)
- Kd: 7.9 µM
